Data as given in patent US10507233B2, “Universal N-glycan binding reagent” (New England Biolabs, Inc., priority 2014, dated 2019).
Read-outs that look alike come from different tables or passages of the source.

Legend:
[1] = target: T1, SNAP-Fbs (SNAP-wtFbs): human Fbs sugar binding domain, positions 113 to 296, wild type, SEQ ID NO: 2, fused to SNAP-tag (AGT variant, SEQ ID NO: 4), fusion SEQ ID NO: 3 (Homo sapiens, UniProt Q9UK22); assay: Isothermal titration calorimetry of glycan / sialylglycopeptide binding to SNAP-Fbs in solution; conditions: ITC, low salt buffer (50 mM NaCl, 20 mM Tris-HCl, 1 mM EDTA, pH 7.5), 90 μM glycan into 9 μM Fbs, single site binding model
T1 construct: made in house; host or cells: E. coli, pSNAP-tag(T7)-2 vector
T1 sequence (Q9UK22 with tags, fused parts or gaps): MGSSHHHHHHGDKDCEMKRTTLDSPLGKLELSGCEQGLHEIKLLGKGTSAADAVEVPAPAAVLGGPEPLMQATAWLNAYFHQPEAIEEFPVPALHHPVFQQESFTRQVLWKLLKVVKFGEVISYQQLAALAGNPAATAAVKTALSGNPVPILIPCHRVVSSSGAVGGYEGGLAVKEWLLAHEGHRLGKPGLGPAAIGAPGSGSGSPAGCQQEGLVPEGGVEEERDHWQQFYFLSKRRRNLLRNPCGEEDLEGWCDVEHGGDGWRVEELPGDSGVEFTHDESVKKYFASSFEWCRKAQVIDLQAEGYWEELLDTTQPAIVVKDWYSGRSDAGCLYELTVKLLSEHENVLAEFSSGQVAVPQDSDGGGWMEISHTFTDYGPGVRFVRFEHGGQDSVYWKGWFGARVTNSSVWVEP
Procedure: Fbs binds to N-glycan and N-glycan with fucose modification at the reducing end of GlcNAc. Isothermal titration calorimetry was used to assay the interaction between Fbs and core structure glycans. Man3GlcNAc2 (M3N2) and Man3GlcNAc2 with (alpha 1-6) fucose modification at the reducing end of GlcNAc (M3N2F) were used as binding substrates (both substrates were purchased from Prozyme, Hayward, Calif. SNAP-Fbs was dialysed against low salt buffer and the glycans were also dissolved in the same dialysis buffer. A Nano ITC instrument (TA Instruments, Lindon, Utah) with 170 μl cell volume and 50 μl buret volume was used. Every 300 seconds, 2.97 μl of 90 μM glycan was automatically injected into 9 μM Fbs solution. The data was fitted using a single site binding model (Nanoanalyze software (TA Instruments, Lindon, Utah)), and the Kd was calculated.
Isothermal titration calorimetry analysis of SGP (Fushimi Pharmaceutical Co., Marugame, Japan) binding to SNAP-Fbs. SNAP-Fbs was dialysed against low salt buffer and SGP was also dissolved in the same low salt buffer. A Nano ITC instrument with 170 μl cell volume and 50 μl buret volume was used. Every 300 seconds, 2.97 μl of 270 μM SGP was automatically injected into 27 μM Fbs solution. The data was fitted using a single site binding model (Nanoanalyze software), and Kd was calculated. […]

Fetuin and RNase B = assay: Pull-down of Fetuin and RNase B mixture by immobilized Fbs beads; type: binding; conditions: input defined as 1
Procedure: The same amount of wild-type Fbs, Fbs GYR mutant and PPRYR mutant proteins were conjugated to SNAP capture resin using the conditions described in Example 2 (FIG. 10B). Binding to RNase B with high mannose N-glycan and Fetuin with sialyated complex N-glycan linked glycomolecules was analyzed in a single experiment. A mixture of denatured Fetuin and RNase B (denatured by boiling for 10 minutes in the presence of 1× Rapid PNGase F buffer (New England Biolabs, Ipswich, Mass.) were pulled down by the immobilized Fbs beads conjugated with equal amount of WT, GYR or PPRYR Fbs proteins (FIGS. 10A and 10B). The bound fetuin and RNase B were eluted by 1× gel loading buffer, and analyzed by -PAGE/Coomassie blue staining. The amount of fetuin or RNase B on -PAGE gels were quantified using Image J. The ratio of Fetuin to RNase B (Fetuin/RNase B) is arbitrarily defined as 1 in the input (FIG. 10A, Lane 7 and 10C). In low salt volatile buffer conditions, wild-type Fbs pulled down a very small amount of Fetuin (FIG. 10A, Lane1), and the Fetuin/RNase B is only 0.29 (FIG. 10C), which indicates biased N-glycan linked glycomolecule binding. […]

SGP-TMR = target: T2, SGP-TMR (Homo sapiens, UniProt Q9UK22); assay: Elution of bound SGP-TMR from Fbs beads; conditions: 100 ul 2 M ammonium bicarbonate
T2 construct: His6 (N); made in house; host or cells: E. coli
T2 sequence (Q9UK22 with tags, fused parts or gaps): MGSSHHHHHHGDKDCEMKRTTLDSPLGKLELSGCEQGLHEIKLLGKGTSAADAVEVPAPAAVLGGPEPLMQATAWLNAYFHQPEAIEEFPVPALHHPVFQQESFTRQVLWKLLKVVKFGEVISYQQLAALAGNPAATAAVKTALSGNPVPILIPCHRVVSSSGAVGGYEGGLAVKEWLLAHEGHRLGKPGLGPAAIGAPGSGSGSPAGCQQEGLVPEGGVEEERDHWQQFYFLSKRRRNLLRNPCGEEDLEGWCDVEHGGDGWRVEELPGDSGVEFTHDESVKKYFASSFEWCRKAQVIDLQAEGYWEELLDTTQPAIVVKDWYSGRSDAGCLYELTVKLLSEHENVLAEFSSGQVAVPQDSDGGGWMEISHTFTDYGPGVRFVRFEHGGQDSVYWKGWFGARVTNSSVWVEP
Procedure: N-glycan linked glycomolecules reversibly binds to Fbs beads. Different reagents were tested for releasing bound N-linked glycopeptides from Fbs beads. 100 μl Fbs beads with bound SGP-TMR were collected, washed with 300 μl low salt binding buffer once, and divided into three aliquots (30 μl beads each aliquot). 100 ul of 2 M ammonium bicarbonate (NH4HCO3), 50% acetonitrile, or 1% acetic acid were added to Fbs beads with bound SGP-TMR to elute SGP-TMR. The beads were centrifuged and supernatants were collected. The solvent in the supernatant was removed by vacuum evaporation using a speedvac, and SGP-TMR was reconstituted in low salt buffer. SGP-levels were measured as described in Example 9. […] 1% Acetic acid released approximately 65% of SGP-TMR. In contrast, less than 30% of bound N-glycan linked glycomolecules were released with 2 M ammonium bicarbonate.

[2] = Binding of 2-AB labeled M3N2 to SNAP-Fbs beads; conditions: low salt buffer, versus SNAP control beads
From the text: When PNGase F is used to trim N-glycans away from the peptides or proteins, the terminal GlcNAc residue becomes available for modification. A common modification is fluorophore labeling using 2-AB dye. The primary amino group of the dye performs a nucleophilic attack on the carbonyl carbon of the acyclic reducing terminal residue to form a partially stable Schiff's base. […] The conserved terminal GlcNAc residue is thus referred to as the “reducing end” of a glycan species. Upon 2-AB labeling, the carbohydrate ring structure is no longer capable of forming. Fifty picomoles of 2-AB labeled M3N2 in low salt buffer were incubated with SNAP-Fbs beads or SNAP control beads (SNAP Capture beads conjugated to SNAP-tag Purified Protein, New England Biolabs, Ipswich, Mass.).

[3] = target: T3, RNase B tryptic digest spiked with SGP (Homo sapiens, UniProt Q9UK22); assay: Enrichment of N-glycopeptides from RNase B tryptic digest spiked with SGP (LC-MS); type: binding; conditions: low salt or high salt volatile buffer, TIC
T3 construct: His6 (N); made in house; host or cells: E. coli
T3 sequence (Q9UK22 with tags, fused parts or gaps): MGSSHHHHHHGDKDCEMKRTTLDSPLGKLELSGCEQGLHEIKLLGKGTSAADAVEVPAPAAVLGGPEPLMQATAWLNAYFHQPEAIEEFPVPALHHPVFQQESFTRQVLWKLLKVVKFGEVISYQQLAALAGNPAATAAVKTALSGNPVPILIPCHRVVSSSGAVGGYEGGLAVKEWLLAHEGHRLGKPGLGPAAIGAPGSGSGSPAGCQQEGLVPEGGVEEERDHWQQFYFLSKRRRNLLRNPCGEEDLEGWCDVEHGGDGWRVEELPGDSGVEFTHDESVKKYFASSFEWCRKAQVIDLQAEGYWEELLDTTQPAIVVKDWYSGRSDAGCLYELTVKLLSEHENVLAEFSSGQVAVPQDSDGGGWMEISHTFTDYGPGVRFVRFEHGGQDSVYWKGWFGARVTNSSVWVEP
From the text: Fbs beads were used to capture and enrich N-glycopeptides from a complex mixture. The complex mixture was a tryptic digest of RNase B spiked with SGP to serve as a complex, sialylated glycopeptide. RNase B contains several non-glycosylated peptides and several different high mannose N-glycopeptides (labeled in the enlargement as: M5N2, M6N2). One hundred eighty-five micrograms RNase B was digested with 4 micrograms trypsin (New England Biolabs, Ipswich, Mass.) in trypsin digestion buffer and then filtered with a 10 kDa Microcon 10 centrifugal filter unit (Millipore, Billerica, Mass.) to remove trypsin and any undigested RNase B. PMSF (1 mM final concentration) was added to inhibit any residual trypsin. 100 micrograms SGP was added to the RNase B digest. Then immobilized binding reagent, SNAP-Fbs beads in this example, was mixed with the complex mixture and incubated at 4° C. for 1 hour in the presence of either low salt volatile buffer or high salt volatile buffer. The beads were washed with low salt volatile buffer or high salt volatile buffer, respectively. The bound N-glycopeptides were eluted using 50% acetonitrile, then lyophilized and analyzed by mass spec (LC-MS method). […] The dotted line indicates the chromatogram of the input mixture without enrichment. […]
The different peptides and N-glycopeptides present in the complex mixture described in Example 11 were quantified.

Fetuin = Fetuin pull-down assay (Affigel-Fetuin beads, SDS-PAGE, ImageJ); type: binding; conditions: low salt buffer, cell lysates
From the text: Fetuin, which contains sialylated complex N-linked glycans, served as the complex N-linked glycomolecule in this example. Fetuin was conjugated to Affigel 15 resin (Bio-Rad, Hercules, Calif.), and then denatured by 6 M Guanidine HCL. After denaturation, the fetuin beads were washed with 50 bead volumes of low salt buffer to remove Guanidine HCL. This immobilized denatured Fetuin was used to screen Fbs mutants for improved affinity to complex N-linked glycomolecules in low salt conditions in a fetuin pull-down assay. In this assay, cell lysates containing the same amount of wild type or mutant Fbs protein were incubated with the same amount of fetuin beads at 4° C. for 1 hour. After incubation, the fetuin beads were washed three times with low salt buffer. The bound Fbs proteins were eluted by 1× gel loading buffer, and analyzed by SDS-PAGE. In the fetuin pull-down assay, the amount of Fbs mutant protein shown on the SDS-PAGE gel indicates the relative affinity of each Fbs mutant for binding to a complex N-linked glycomolecule. Fbs amino acid residue serine 155 was mutated to alanine to assess the effect on the interaction with complex N-linked glycomolecules. Mutation of Ser155 to alanine was expected to reduce the affinity of the interaction between Fbs and fetuin according to the published report of Tanaka et al. (Tanaka, et al. PNAS). […]

CC(=O)N[C@H]1[C@H](O[C@H]2[C@H](O)[C@@H](NC(C)=O)C(O)O[C@@H]2CO)O[C@H](CO)[C@@H](O[C@@H]2O[C@H](CO[C@H]3O[C@H](CO)[C@@H](O)[C@H](O)[C@@H]3O)[C@@H](O)[C@H](O[C@H]3O[C@H](CO)[C@@H](O)[C@H](O)[C@@H]3O)[C@@H]2O)[C@@H]1O (stereo partly drawn) [M3N2, Man(α1-3)(Man(α1-6))Man(β1-4)GlcNAc(β1-4)GlcNAc]
Kd ([1]; read-out: Kd M3N2): 123 ± 36 nM

CC(=O)N[C@H]1[C@H](O[C@H]2[C@H](O)[C@@H](NC(C)=O)C(O)O[C@@H]2CO[C@@H]2O[C@@H](C)[C@@H](O)[C@@H](O)[C@@H]2O)O[C@H](CO)[C@@H](O[C@@H]2O[C@H](CO[C@H]3O[C@H](CO)[C@@H](O)[C@H](O)[C@@H]3O)[C@@H](O)[C@H](O[C@H]3O[C@H](CO)[C@@H](O)[C@H](O)[C@@H]3O)[C@@H]2O)[C@@H]1O (stereo partly drawn) [M3N2F]
Kd ([1]; read-out: Kd M3N2F): 128 ± 37 nM

B1: wtFbs: sugar binding domain (position 113 to 296) of human Fbs, SEQ ID NO: 2, tested as SNAP-tag fusion (SEQ ID NO: 3), free or on BG beads (protein)
chain: MGSSHHHHHHGDKDCEMKRTTLDSPLGKLELSGCEQGLHEIKLLGKGTSAADAVEVPAPAAVLGGPEPLMQATAWLNAYFHQPEAIEEFPVPALHHPVFQQESFTRQVLWKLLKVVKFGEVISYQQLAALAGNPAATAAVKTALSGNPVPILIPCHRVVSSSGAVGGYEGGLAVKEWLLAHEGHRLGKPGLGPAAIGAPGSGSGSPAGCQQEGLVPEGGVEEERDHWQQFYFLSKRRRNLLRNPCGEEDLEGWCDVEHGGDGWRVEELPGDSGVEFTHDESVKKYFASSFEWCRKAQVIDLQAEGYWEELLDTTQPAIVVKDWYSGRSDAGCLYELTVKLLSEHENVLAEFSSGQVAVPQDSDGGGWMEISHTFTDYGPGVRFVRFEHGGQDSVYWKGWFGARVTNSSVWVEP
modifications: SNAP-tag fusion; optionally on BG beads
Fetuin/RNase B ratio (Fetuin and RNase B; high salt volatile buffer (2 M ammonium acetate pH 7.5)): 0.92 | Fetuin/RNase B ratio (Fetuin and RNase B; low salt volatile buffer (50 mM ammonium acetate pH 7.5)): 0.29 | bound N-glycan linked glycomolecules released (SGP-TMR): less than 30% | binding of 2-AB labeled M3N2 [2]: disrupts the interaction | enrichment of non-glycosylated peptides [3]: not enriched

B2: S155A: human Fbs SBD variant with S155A mutation (protein)
chain: FYFLSKRRRNLLRNPCGEEDLEGWCDVEHGGDGWRVEELPGDAGVEFTHDESVKKYFASSFEWCRKAQVIDLQAEGYWEELLDTTQPAIVVKDWYSGRSDAGCLYELTVKLLSEHENVLAEFSSGQVAVPQDSDGGGWMEISHTFTDYGPGVRFVRFEHGGQDSVYWKGWFGARVTNSSVWVEP
modifications: left off: large carriers
notes: human Fbs SBD variant with S155A mutation
fetuin pull-down relative to wild type Fbs (Fetuin): 1.5 fold

B3: S155G: human Fbs SBD variant with S155G mutation (protein)
chain: FYFLSKRRRNLLRNPCGEEDLEGWCDVEHGGDGWRVEELPGDGGVEFTHDESVKKYFASSFEWCRKAQVIDLQAEGYWEELLDTTQPAIVVKDWYSGRSDAGCLYELTVKLLSEHENVLAEFSSGQVAVPQDSDGGGWMEISHTFTDYGPGVRFVRFEHGGQDSVYWKGWFGARVTNSSVWVEP
modifications: left off: large carriers
notes: human Fbs SBD variant with S155G mutation
fetuin pull-down relative to wild type Fbs (Fetuin): 2.0 fold
